Laboratory results from the supplement of paper PMC7125110.
± gives the standard error. Fewer inactive variants are shown than the library holds.

B1: glmS ribozyme (parent)
chain: AUAAAAGCGCCAGAACUACAGAAAUGUAGUUGACGAGGAGGAGGUUUAUCGAAUUUUCGGCGGAUGCCUCCAAA

Legend:
Settings in all cases: with glucosamine-6-phosphate
glucosamine-6-phosphate [1] = variants of: B1; test: self-cleavage kobs at 160 uM GlcN6P; higher = faster cleavage; RNA array
Outline: (§1)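 Glucosamine-6-phosphate in HEPES/KCl/Mg(OAc)2 buffer, at 40 μM to 10 mM, was flowed over barcoded ribozyme variants transcribed in situ by E. coli RNA polymerase on sequenced MiSeq chips. Tracking was through a hybridised Cy3 probe at 37 °C. kobs, kcat and KM came from exponential decay fits and weighted Michaelis–Menten fits of normalised per-tile medians.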

glucosamine-6-phosphate [2] = variants of: B1; test: self-cleavage kobs at 640 uM GlcN6P; higher = faster cleavage; RNA array
Outline: as §1

glucosamine-6-phosphate [3] = variants of: B1; test: self-cleavage kobs at 2500 uM GlcN6P; higher = faster cleavage; RNA array
Outline: as §1

glucosamine-6-phosphate [4] = variants of: B1; test: self-cleavage kobs at 10000 uM GlcN6P; higher = faster cleavage; RNA array
Outline: as §1

| Variant | self-cleavage kobs at 160 uM GlcN6P (glucosamine-6-phosphate [1]) [s⁻¹] | self-cleavage kobs at 640 uM GlcN6P (glucosamine-6-phosphate [2]) [s⁻¹] | self-cleavage kobs at 2500 uM GlcN6P (glucosamine-6-phosphate [3]) [s⁻¹] | self-cleavage kobs at 10000 uM GlcN6P (glucosamine-6-phosphate [4]) [s⁻¹] |
| --- | --- | --- | --- | --- |
| U30G A33U | < 1e-05 |  |  |  |
| A14G A39G U69A | 0.000285 ± 7.7e-05 | 0.000936 ± 0.00031 | 0.000786 ± 0.00024 |  |
| A33G G41U C50U C71U | < 1e-05 | < 1e-05 |  |  |
| A33U G43C | < 1e-05 | < 1e-05 | < 1e-05 |  |
| G29A G62A | < 1e-05 | < 1e-05 | < 1e-05 |  |
| U31C G35C | < 1e-05 | < 1e-05 | < 1e-05 | < 1e-05 |
| C34G G59C | < 1e-05 | < 1e-05 |  | < 1e-05 |
| C34A U54A | < 1e-05 |  | < 1e-05 |  |
| C16U C58A | 0.000528 ± 0.00025 | 0.000131 ± 2.7e-05 | 0.000305 ± 6.1e-05 | 0.00094 ± 0.00015 |
| C34U G41A | < 1e-05 | < 1e-05 | < 1e-05 | < 1e-05 |
| C34U C70U | < 1e-05 | < 1e-05 |  |  |
| C16G A48C G62U | < 1e-05 | < 1e-05 |  |  |
| G32U G44U U47G A64C | < 1e-05 |  | < 1e-05 |  |
| U31A A42C C70G | < 1e-05 | < 1e-05 |  |  |
| C34G G40C A48G U49G C71U | < 1e-05 | < 1e-05 | < 1e-05 | < 1e-05 |
| A15G A53G U65C | 6.49e-05 ± 1.6e-05 | 0.000264 ± 6.9e-05 | 0.000485 ± 0.00011 |  |
| G32U C61U | < 1e-05 | < 1e-05 |  |  |
| U30G U31C A33U U45A U55A | < 1e-05 |  |  |  |
| A33G G37U C50G | 6.35e-05 ± 3.1e-05 |  | 0.000141 ± 4.1e-05 |  |
| A33C A64U C70A | < 1e-05 |  | < 1e-05 |  |
| A15G G51U G59A | < 1e-05 |  | < 1e-05 | < 1e-05 |
| G32C C71U | < 1e-05 |  | 2.98e-05 ± 1.2e-05 | 9.6e-05 ± 1e-05 |
| A33U G44C A52U | < 1e-05 |  | < 1e-05 |  |
| A33U A48G | < 1e-05 | < 1e-05 | < 1e-05 |  |
| A15G U47C G63A | < 1e-05 | < 1e-05 | < 1e-05 |  |

| Variant | self-cleavage kobs at 160 uM GlcN6P (glucosamine-6-phosphate [1]) [s⁻¹] | self-cleavage kobs at 640 uM GlcN6P (glucosamine-6-phosphate [2]) [s⁻¹] | self-cleavage kobs at 2500 uM GlcN6P (glucosamine-6-phosphate [3]) [s⁻¹] | self-cleavage kobs at 10000 uM GlcN6P (glucosamine-6-phosphate [4]) [s⁻¹] |
| --- | --- | --- | --- | --- |
| U30C G35U A39C | < 1e-05 |  | < 1e-05 |  |
| G32C C34U A36U C61U | < 1e-05 | < 1e-05 |  |  |
| G35A A39C | < 1e-05 | < 1e-05 | < 1e-05 | < 1e-05 |
| U30A C50A | < 1e-05 |  |  |  |
| C16G G29C C71G | 9.16e-05 ± 1.5e-05 |  |  |  |
| G35A U54G | < 1e-05 | < 1e-05 | < 1e-05 |  |
| A15U C50A A64U C71U | < 1e-05 |  |  |  |
| C16G G29U G37A | 5.27e-05 ± 1.6e-05 | 0.000272 ± 7.4e-05 | 0.000382 ± 9.7e-05 |  |
| U30G A42G U56C | 0.000132 ± 4.7e-05 | 0.000353 ± 0.00011 | 0.000492 ± 0.00016 |  |
| C34A G44U A53C U55G | < 1e-05 |  |  |  |
| C16G U30A C58U G59A G60U C67G | < 1e-05 |  |  |  |
| C16U A52G C68U | 6.54e-05 ± 2.2e-05 | 0.000491 ± 0.00012 | 0.000422 ± 0.00016 |  |
| A15G C58G C68U | 8.66e-05 ± 3.1e-05 | 6.1e-05 ± 1.7e-05 | 5.67e-05 ± 1.6e-05 | 3.61e-05 ± 1.6e-05 |
| G29A A52C | < 1e-05 | < 1e-05 |  | < 1e-05 |
| A14G U55A A64C C70U | 3.8e-05 ± 1.7e-05 | 0.000343 ± 8.3e-05 | 0.000958 ± 0.00021 | 0.000686 ± 0.00019 |
| C16A U31C U56G | 3.96e-05 ± 1.5e-05 | 9.16e-05 ± 1.9e-05 | 0.000266 ± 5.4e-05 |  |
| G29U A52G C61G C68U U69A | 4.87e-05 ± 1.6e-05 | 3.32e-05 ± 1.6e-05 |  |  |
| G29A U65A C70U | 7.19e-05 ± 3e-05 | 8.13e-05 ± 1.7e-05 | 0.000148 ± 3.6e-05 |  |
| G26U C50G C68U | 0.000155 ± 5.5e-05 |  |  |  |
| A15C C16G C50G A64C | 0.000208 ± 6.7e-05 | 7.03e-05 ± 2.7e-05 | 5.92e-05 ± 1.8e-05 |  |
| C34U U56C G62U C71A | < 1e-05 |  | < 1e-05 |  |
| A14G G51U | < 1e-05 |  |  |  |
| G29U A42U A48U G62A | < 1e-05 |  | < 1e-05 |  |
| G29A A42G U45A | 6.61e-05 ± 3e-05 | 0.00154 ± 0.00038 | 0.00402 ± 0.0015 |  |
| C16A A39U C58A U65A | < 1e-05 | < 1e-05 | < 1e-05 |  |
